The source of these data is patent publication US20250302956A1.

Holding throughout (assay): cell-based or functional assay
Assay [1] addresses NY-ESO-1 peptide … (SEQ ID NO: 40) presented by HLA-A02 on T2 cells (human).
For assay [2], the target named is LAMWITQC (SEQ ID NO: 2) presented by HLA-A02 on T2 cells (human).
Assay [3] deals with LLMWITQC (SEQ ID NO: 1) presented by HLA-A02 on T2 cells (human).

Turning to native 1G4-α95: TS TCR, the average log 2FC in PresentER library coculture screen, CD8-native 1G4-α95: TS cells (log2 fold change) in assay [1] was -6.1; in assay [2] it was -4; in assay [3] it was -5.
